Experimental findings from US20230192897A1 (NUMAB THERAPEUTICS, published 2023) are described below.

In general, koff refers to the rate constant with which the complex falls apart. Lower therefore signals slow dissociation. As usually defined, the Kd is the concentration at which binding is half-saturated. The kon is the second-order rate constant of association. In general, IC50 refers to the midpoint of a concentration-inhibition curve. Low readings indicate greater potency in that assay, high ones weaker potency in that assay.

Test [1] concerns the target T1, CD137 on Jurkat NFkB reporter cells (human, UniProt Q07011 24-255). Kind of test: cell-based or functional assay.
Test [2] addresses T1, CD137 on Jurkat NFkB reporter cells. Kind of test: cell-based or functional assay. The source holds these as a separate data set.
In test [3] the target is T2, human PDL1 on cells (human, UniProt Q9NZQ7 19-290). Kind of test: cell-based or functional assay.
Test [4] has as its target human PDL1 extracellular domain (human, UniProt Q9NZQ7 19-238). Kind of test: SPR, IgG format captured. The protocol: (§1) Affinity to PDL1 of the different species was determined by SPR measurements using a Biacore T200 device (GE Healthcare). An antibody specific for the Fc region of human IgGs was immobilized on a sensor chip (CM5 sensor chip, GE Healthcare) by amine-coupling. For all formats, with the exception of the Fc containing Morrison formats, PDL1-Fc chimeric protein from different species were captured by the immobilized antibody.
(§2) The Fc containing formats were directly captured by the antibody specific for the Fc region of human IgGs. Two-fold serial dilutions of PDL1 extracellular domain or CD137 extracellular domain ranging from 90 to 0.35 nM were tested for binding to the IgG captured on the biosensor chip. After each injection cycle, surfaces were regenerated with one injection of a 3 M MgCl2 solution.
Background: In SPR one partner is held on a chip, and binding of the other changes the refractive index at the surface.

In test [5] the target is T3, human CD137 extracellular domain (human, UniProt Q07011 24-186).
T3 construct: also called CD137 (PeproTech, cat. 310-15)
Kind of test: SPR, IgG format captured. The protocol: as §1, §2

The target of test [6] is T4, biotinylated human PDL1 (human, UniProt Q9NZQ7 19-238, limits assumed, biotinylated).
T4 construct: also called biotinylated PDL1
Kind of test: competition ELISA B7.1/PDL1. The method in brief:
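IC₅₀ was derived by four-parameter logistic fitting of reference-subtracted A450/690 readings. The signal came from streptavidin-polyHRP40 (10 ng/ml) with a 6-minute TMB reaction detecting biotinylated PDL1 bound to the plate. Pre-mixed samples sat 1 h at RT before a 1.5 h plate incubation.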
On the technique in general: In an ELISA, binding on a coated surface is turned into a signal by an enzyme label.

Test [7] deals with T4, biotinylated human PDL1. Kind of test: competition ELISA PD-1/PDL1.
In test [8] the target is T2, human PDL1 on cells. Kind of test: cell-based or functional assay. This is another data set of the same source.
Test [9] deals with T1, CD137 on Jurkat NFkB reporter cells. Kind of test: cell-based or functional assay. The source holds these as a separate data set.
For test [10] the target is unchanged. Kind of test: cell-based or functional assay. This is another data set of the same source.
Test [11] shares this target. Kind of test: cell-based or functional assay. This is another data set of the same source.
The target is the same in test [12]. Kind of test: cell-based or functional assay. The source holds these as a separate data set.

“And” between values parts separate entries of the source, which are not always exact repeats. Equal values may be shown once. Read-outs that look alike come from different tables or passages of the source.

As to urelumab (antibody), in test [1], the EC50, NFkB reporter, CHO-PDL1 was 0.0795 µg/mL and 0.104 µg/mL and 0.0865 µg/mL; the Top of curve fit, NFkB reporter, CHO-PDL1 turned out to be 100. Besides, in test [2], the EC50, NFkB reporter, CHO-PDL1 worked out at 0.0791 µg/mL; the EC50, NFkB reporter, CHO-PDL1, 6 h was 0.0565 µg/mL; the EC50, NFkB reporter, CHO-PDL1, 6 h, +HSA worked out at 0.0777 µg/mL; the EC50, NFkB reporter, CHO-PDL1, 24 h turned out to be 0.0466 µg/mL. In [2], the EC50, NFkB reporter, CHO-PDL1, 24 h, +HSA turned out to be 0.0782 µg/mL; the EC50, NFkB reporter, HCC827 with IFNg was 0.114 µg/mL and 0.145 µg/mL and 0.108 µg/mL; the EC50, NFkB reporter, HCC827 with IFNg, 24 h came to 0.0528 µg/mL; the EC50, NFkB reporter, HCC827 without IFNg was 0.212 µg/mL and 0.11 µg/mL and 0.112 µg/mL. In [2], this molecule yielded an EC50, NFkB reporter, HCC827 without IFNg, 24 h of 0.0475 µg/mL; a Top of curve fit, NFkB reporter, CHO-PDL1 of 102; a Top of curve fit, NFkB reporter, HCC827 with IFNg of 100; a Top of curve fit, NFkB reporter, HCC827 without IFNg of 100.

B1: PRO1062 (bispecific antibody, human IgG1, kappa, L234A L235A)
light: DIQMTQSPSSLSASVGDRVTITCQASQSINDYLAWYQQKPGKAPKLLIYKASTLASGVPSRFSGSGSGTDFTLTISSLQPEDFATYYCQQGYIITDIDNVFGTGTKVTVLGTVAAPSVFIFPPSDEQLKSGTASVVCLLNNFYPREAKVQWKVDNALQSGNSQESVTEQDSKDSTYSLSSTLTLSKADYEKHKVYACEVTHQGLSSPVTKSFNRGEC
heavy: QVQLQESGPGLVKPSETLSLTCKVSGFSFSSGYDMCWIRQPPGKGLEWIGCVVAGSVDITYYASWAKGRVTISVDSSKNQFSLKLSSVTAADTAVYYCARKDAYSDAFNLWGQGTLVTVSSASTKGPSVFPLAPSSKSTSGGTAALGCLVKDYFPEPVTVSWNSGALTSGVHTFPAVLQSSGLYSLSSVVTVPSSSLGTQTYICNVNHKPSNTKVDKRVEPKSCDKTHTCPPCPAPEAAGGPSVFLFPPKPKDTLMISRTPEVTCVVVDVSHEDPEVKFNWYVDGVEVHNAKTKPREEQYNSTYRVVSVLTVLHQDWLNGKEYKCKVSNKALGAPIEKTISKAKGQPREPQVYTLPPSREEMTKNQVSLTCLVKGFYPSDIAVEWESNGQPENNYKTTPPVLDSDGSFFLYSKLTVDKSRWQQGNVFSCSVMHEALHNHYTQKSLSLSPGKGGGGSGGGGSIQMTQSPSSLSASVGDRVTITCQASQSINNVLAWYQQKPGKAPKLLIYRASTLASGVPSRFSGSGSGTDFTLTISSLQPEDFATYYCQSSYGNYGDFGTGTKVTVLGGGGGSGGGGSGGGGSGGGGSQVQLQESGPGLVKPSETLSLTCKVSGFSFSNSYWICWIRQPPGKGLEWIGCTFVGSSDSTYYANWAKGRVTISVDSSKNQFSLKLSSVTAADTAVYYCARHPSDAVYGYANNLWGQGTLVTVSS
notes: also called 33-03-G02 sc01 IgG1 HC with 38-27-C05 sc01 scFv; Morrison-H
In the test with human PDL1 on cells [3], B1 returned an IC50 (ng/ml), NF-AT potency assay of 96.5 ng/mL and a rel. IC50 (avelumab/test) of 0.68 fold. For the same molecule, in test [2], the EC50, NFkB reporter, CHO-PDL1, 6 h turned out to be 0.0522 µg/mL; the EC50, NFkB reporter, CHO-PDL1, 24 h is 0.0869 µg/mL; the IC50 (ng/ml), NFkB reporter, CHO-PD-L1, 24 h is 86.9 ng/mL; the max. activation (%), NFkB reporter, CHO-PD-L1, 24 h worked out at 134%. For the same molecule, the rel. IC50 (urelumab/test), NFkB reporter, CHO-PD-L1, 24 h in test [2] came to 0.54 fold. In addition, in [4], the koff came to 5e-05 s⁻¹. In test [5], this molecule displayed a Kd of 1.3 nM, a dissociation rate constant (koff) of 0.00037 s⁻¹ and a kon of 280000 M⁻¹ s⁻¹. In the test with biotinylated human PDL1 [6], the IC50 came out at 0.0195 µg/mL and the “rel. IC50 (IC50 avelumab/IC50 test)” value was 0.51 fold. In the test with biotinylated human PDL1 [7], the IC50 turned out to be 0.0113 µg/mL and the “rel. IC50 (IC50 avelumab/IC50 test)” value came out at 0.32 fold.

B2: PRO1060 (bispecific antibody, human IgG1, kappa, L234A L235A)
light: B1 light
heavy: B1 heavy
notes: silent hIgG1 anti-PDL1 with anti-CD137 scFv on the heavy chain; also called 33-03-G02 IgG1 HC with 38-02-A04 sc01 scFv; Morrison-H
Turning to B2, in the test with human PDL1 on cells [8], the “IC50 (ng/ml), NF-AT potency assay” value turned out to be 133 ng/mL and the “rel. IC50 (avelumab/test)” value turned out to be 0.44 fold. The “EC50, NFkB reporter, CHO-PDL1, 6 h” value in [9] was determined as 0.0564 µg/mL. The “EC50, NFkB reporter, CHO-PDL1, 24 h” value in test [10] was found to be 0.0808 µg/mL. Moreover, in [11], the “EC50, NFkB reporter, HCC827 with IFNg, 24 h” value was determined as 0.0175 µg/mL and the “EC50, NFkB reporter, HCC827 without IFNg, 24 h” value stood at 0.0136 µg/mL. Further, in test [12], the “IC50 (ng/ml), NFkB reporter, CHO-PD-L1, 24 h” value came to 80.8 ng/mL; the “IC50 (ng/ml), NFkB reporter, HCC827 + IFNg, 24 h” value came out at 17.5 ng/mL; the “IC50 (ng/ml), NFkB reporter, HCC827 - IFNg, 24 h” value turned out to be 13.6 ng/mL; the “rel. IC50 (urelumab/test), NFkB reporter, CHO-PD-L1, 24 h” value was determined as 0.58 fold. For the same molecule, in [12], the “rel. IC50 (urelumab/test), NFkB reporter, HCC827 + IFNg, 24 h” value was determined as 3.01 fold and the “rel. IC50 (urelumab/test), NFkB reporter, HCC827 - IFNg, 24 h” value amounted to 3.5 fold. In [4], this molecule gave a koff of 4.6e-05 s⁻¹ and a kon of 1.3e+06 M⁻¹ s⁻¹. In [5], the Kd was 1.3 nM and the koff is 0.00039 s⁻¹. In the test with biotinylated human PDL1 [6], the half-inhibitory concentration (IC50) came out at 0.0174 µg/mL and the “rel. IC50 (IC50 avelumab/IC50 test)” value was 0.49 fold. Moreover, in the test with biotinylated human PDL1 [7], the IC50 was 0.00567 µg/mL and the “rel. IC50 (IC50 avelumab/IC50 test)” value stood at 0.3 fold.

B3: PRO1059 (bispecific antibody, human IgG1, kappa, L234A L235A)
light: DIQMTQSPSSLSASVGDRVTITCQASQSINDYLAWYQQKPGKAPKLLIYKASTLASGVPSRFSGSGSGTDFTLTISSLQPEDFATYYCQQGYIITDIDNVFGTGTKVTVLGTVAAPSVFIFPPSDEQLKSGTASVVCLLNNFYPREAKVQWKVDNALQSGNSQESVTEQDSKDSTYSLSSTLTLSKADYEKHKVYACEVTHQGLSSPVTKSFNRGECGGGGSGGGGSIQMTQSPSSLSASVGDRVTITCQASQSINNVLAWYQQKPGKAPKLLIYRASTLASGVPSRFSGSGSGTDFTLTISSLQPEDFATYYCQSSYGNYGDFGTGTKVTVLGGGGGSGGGGSGGGGSGGGGSQVQLQESGPGLVKPSETLSLTCKVSGFSFSNSYWICWIRQPPGKGLEWIGCTFVGSSDSTYYANWAKGRVTISVDSSKNQFSLKLSSVTAADTAVYYCARHPSDAVYGYANNLWGQGTLVTVSS
heavy: QVQLQESGPGLVKPSETLSLTCKVSGFSFSSGYDMCWIRQPPGKGLEWIGCVVAGSVDITYYASWAKGRVTISVDSSKNQFSLKLSSVTAADTAVYYCARKDAYSDAFNLWGQGTLVTVSSASTKGPSVFPLAPSSKSTSGGTAALGCLVKDYFPEPVTVSWNSGALTSGVHTFPAVLQSSGLYSLSSVVTVPSSSLGTQTYICNVNHKPSNTKVDKRVEPKSCDKTHTCPPCPAPEAAGGPSVFLFPPKPKDTLMISRTPEVTCVVVDVSHEDPEVKFNWYVDGVEVHNAKTKPREEQYNSTYRVVSVLTVLHQDWLNGKEYKCKVSNKALGAPIEKTISKAKGQPREPQVYTLPPSREEMTKNQVSLTCLVKGFYPSDIAVEWESNGQPENNYKTTPPVLDSDGSFFLYSKLTVDKSRWQQGNVFSCSVMHEALHNHYTQKSLSLSPGK
notes: silent hIgG1 anti-PDL1 with anti-CD137 scFv on the light chain; also called 33-03-G02 IgG1 LC with 38-02-A04 sc01 scFv; Morrison-L
With B3, in the test with human PDL1 on cells [8], the “IC50 (ng/ml), NF-AT potency assay” value came out at 93.8 ng/mL and the “rel. IC50 (avelumab/test)” value is 0.52 fold. Also, in test [12], the “IC50 (ng/ml), NFkB reporter, CHO-PD-L1, 24 h” value worked out at 289 ng/mL and the “rel. IC50 (urelumab/test), NFkB reporter, CHO-PD-L1, 24 h” value worked out at 0.09 fold. Also, the off-rate (koff) in test [4] was 6.5e-05 s⁻¹. In addition, in test [5], the dissociation constant Kd was determined as 2.3 nM, the dissociation rate constant (koff) was 0.00042 s⁻¹ and the kon was 180000 M⁻¹ s⁻¹. In addition, in the test with biotinylated human PDL1 [6], the IC50 was determined as 0.029 µg/mL and the “rel. IC50 (IC50 avelumab/IC50 test)” value is 0.3 fold. For the same molecule, in the test with biotinylated human PDL1 [7], the half-inhibitory concentration (IC50) turned out to be 0.00454 µg/mL and the “rel. IC50 (IC50 avelumab/IC50 test)” value came out at 0.37 fold.
